From publication doi:10.1101/2023.09.11.557127

Target: human wild-type 5-HT1AR with C-terminal ARMS2-PK2 (5-HT1AR-ARMS2-PK2) (human) (UniProt P08908)
Test: split reporter

UniProt P08908, sequence (P08908 whole entry): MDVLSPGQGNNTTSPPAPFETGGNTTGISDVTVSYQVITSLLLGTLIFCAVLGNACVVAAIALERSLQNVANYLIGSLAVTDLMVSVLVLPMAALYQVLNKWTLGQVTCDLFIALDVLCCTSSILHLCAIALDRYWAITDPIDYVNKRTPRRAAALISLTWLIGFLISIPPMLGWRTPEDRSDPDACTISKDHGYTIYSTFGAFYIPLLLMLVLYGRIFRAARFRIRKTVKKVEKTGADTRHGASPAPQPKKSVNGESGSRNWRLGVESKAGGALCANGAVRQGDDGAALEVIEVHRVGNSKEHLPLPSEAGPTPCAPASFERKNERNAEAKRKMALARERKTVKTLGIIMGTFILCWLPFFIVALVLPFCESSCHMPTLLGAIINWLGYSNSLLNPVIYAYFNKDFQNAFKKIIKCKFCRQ

Emax of recruitment with ST171, elevated GRK2 (% of serotonin): 15% | Emax of recruitment with ST171, native GRK2 (% of serotonin): < 5% | Emax of recruitment with befiradol, elevated GRK2 (% of serotonin): 96% | Emax of recruitment with befiradol, native GRK2 (% of serotonin): 67%
Substance: β-arrestin-2-EA (from UniProt P32121 1-409) (natural protein)
